Data reported in article PMC4794721, “Improved Production of Active Streptomyces griseus Trypsin with a Novel Auto-Catalyzed Strategy” (Scientific Reports, 2016).

Substrate: N=C(N)NCCCC(NC(=O)c1ccccc1)C(=O)Nc1ccc([N+](=O)[O-])cc1
Assay: purified protein
Conditions: 50 mM Tris-HCl, pH 8.0, 37 °C (amidase assay)

B1: SGT (Streptomyces griseus trypsin) (Streptomyces griseus) (protein)
chain: VVGGTRAAQGEFPFMVRLSMGCGGALYAQDIVLTAAHCVSGSGNNTSITATGGVVDLQSSSAVKVRSTKVLQAPGYNGTGKDWALIKLAQPINQPTLKIATTTAYNQGTFTVAGWGANREGGSQQRYLLKANVPFVSDAACRSAYGNELVANEEICAGYPDTGGVDTCQGDSGGPMFRKDNADEWIQVGIVSWGYGCARPGYPGVYTEVSTFASAIASAARTL
Km: 7.88 ± 0.16 × 10^−2 mM
